Experimental data: patent US20220177525A1

Target: N-peptide (RABV N protein, residues 363-414, [change]) (RABV)

“NiP-CTD (C-terminal domain of the P protein of rabies virus strain Nishigahara, residues 186-297, Cy (from UniProt Q9IPJ8 186-296)” was tested. Which Kd did it give?
Its Kd is 88 µM.
